According to paper PMC2787660:
Values belong to the substance of their own block, whether it stands above or below them.

How the values were obtained:
Test in all cases: cross-linking
[1] = target: apoA-I E198K (human)
[2] = target: apoA-I L(46,47)D (human)
[3] = target: apoA-I L(42,44)D (human)

stoichiometry N [1]: 2
Substance: apoA-I E198K (natural protein)

stoichiometry N [2]: 2
Substance: apoA-I L(46,47)D (natural protein)

stoichiometry N [3]: 2
Substance: apoA-I L(42,44)D (natural protein)
